# According to the RNAGym collection of RNA variant scans (doi:10.7554/elife.80360):
# B1: Hairpin Ribozyme (parent)
# chain: GUCCUCUUUCACGUGCGCGUGAAAGAGAGAAGUGAACCAGAGAAACACACGUUGUGGUAUAUUACCUGGUA
# Variants of: B1
# Test: self-cleavage, relative activity (ratio to wild type); higher = more cleavage; co-transcriptional
row,Variant,self-cleavage
1,A11C U52C,1.06
2,A11C U33A,0.222
3,A11C U33C,0.252
4,A11C U33G,0.0703
5,A11C G51A,1.08
6,A11G G34A,1.18
7,A11G A28C,0.446
8,A11C A28U,0.603
9,C10U C65A,0.642
10,C10U C65U,0.204
11,A11C C38U,0.515
12,A11G A36G,0.972
13,A11C U67C,0.225
14,A11C C65G,0.331
15,A11G G54A,0.487
16,A11G G54U,0.56
17,A11C A22G,0.966
18,A11C G34U,1.45
19,A11C G25U,0.548
20,A11G G32U,0.104
21,A11G G32A,0.0907
22,C10U G68A,0.217
23,A11C U60C,1.27
24,C10U G25A,0.429

row,Variant,self-cleavage
1,A11G A45U,0.159
2,A11G A23G,0.83
3,A11C G69A,0.381
4,A11C G69U,0.299
5,A11C G17A,0.759
6,A11C A41U,1.29
7,A11C A41C,1.25
8,A11G A39C,0.45
9,C10U C18G,0.755
10,A11C A43U,0.163
11,A11G A41C,1.06
12,C10U G34C,1.02
13,A11G U58G,0.802
14,A11G A30U,0.118
15,A11G,0.883
16,A11C,0.849
17,A11C G40U,0.181
18,A11C G40C,0.182
19,A11C U62G,0.199
20,A11C A49U,0.197
21,A11C A49G,0.629
22,A11C G29C,0.137
23,A11C G29U,0.113
24,C10U U14G,0.698

row,Variant,self-cleavage
1,C10U U14C,0.671
2,C10U C66U,0.43
3,C10U C66G,0.19
4,A11G U20A,0.637
5,A11G C46U,0.203
6,A11C G13A,0.661
7,C10U G51U,0.888
8,C10U G51A,0.881
9,C10U G29U,0.134
10,C10U G29C,0.159
11,A11G U53G,0.755
12,A11G U53A,0.945
13,A11C A36U,0.491
14,A11C A36G,1.07
15,A11C C18A,0.768
16,A11C U63A,0.201
17,A11C U58G,0.696
18,A11G G68C,0.221
19,A11G G68U,0.143
20,A11G G57C,0.169
21,C10U C12U,0.652
22,A11C A45U,0.128
23,A11C A45C,0.0923
24,C10U G13U,0.612

row,Variant,self-cleavage
1,C10U G13C,0.471
2,A11G U55A,0.191
3,A11C A24U,0.615
4,A11C A24C,0.709
5,A11G C66A,0.29
6,A11C U20A,0.774
7,A11C U20G,1.04
8,C10U U70G,0.698
9,A11C C50U,0.247
10,A11C A39G,0.275
11,A11C A39C,0.514
12,A11C G21A,0.605
13,A11C G21C,0.732
14,A11G G21U,0.72
15,A11G G21A,0.764
16,C10U U20A,0.774
17,A11C A61U,0.118
18,A11C A61G,0.0356
19,A11G G25C,0.587
20,A11G G25U,0.569
21,A11G U52A,0.857
22,A11C C16U,0.811
23,A11G A44C,0.203
24,A11G A44G,0.0822

row,Variant,self-cleavage
1,C10U G19A,0.588
2,C10U G19C,0.702
3,A11C C46U,0.255
4,A11C C46G,0.204
5,A11G U14G,0.846
6,A11C U70C,1.23
7,A11G C18A,0.795
8,A11G C18U,0.939
9,C10U U60G,0.435
10,A11G C16G,0.592
11,A11G C65A,0.759
12,A11G C65U,0.227
13,A11G G51C,0.784
14,A11C A64G,0.462
15,A11C A64C,0.0846
16,A11C A26C,0.41
17,A11C A26U,0.482
18,C10U U63G,0.263
19,C10U U63A,0.25
20,C10U G27A,0.403
21,C10U G32A,0.176
22,C10U G32U,0.164
23,A11G C50A,0.196
24,A11G C50G,0.346

row,Variant,self-cleavage
1,A11C C48U,0.266
2,A11C C48G,0.0688
3,A11C C48A,0.0917
4,A11C U14C,0.68
5,A11G C48G,0.109
6,A11G C48A,0.0849
7,C10U G21A,0.937
8,C10U G21C,0.77
9,A11C G68C,0.136
10,A11C G68A,0.248
11,A11G U60C,1
12,A11G U60A,0.732
13,C10U U33A,0.169
14,A11C G56U,0.0715
15,A11G A71U,0.749
16,A11G A71C,1.35
17,A11C G15A,0.819
18,A11C G15C,0.752
19,C10U G17A,0.808
20,C10U G17C,0.58
21,A11G U33C,0.0978
22,C10U C16G,0.564
23,C10U C16A,0.887
24,A11G A59U,0.199

row,Variant,self-cleavage
1,A11C G57C,0.145
2,C10U U67G,0.311
3,C10U U67A,0.137
4,A11C C66G,0.0776
5,A11C G42C,0.441
6,C10U G42C,0.266
7,C10U G42U,0.269
8,A11G A26C,0.624
9,A11C G19U,0.697
10,A11G C12A,0.735
11,A11G C12U,0.778
12,A11G G29U,0.142
13,A11C U53A,0.919
14,C10U C46U,0.152
15,C10U G69C,0.235
16,A11G G69A,0.405
17,A11G G19A,0.88
18,A11G A35C,0.996
19,A11G A35U,0.764
20,A11G A47C,0.481
21,C10U U62C,0.281
22,C10U G40A,0.308
23,C10U C37U,0.39
